{"source": "patent US20090068207A1", "about": "“Compositions Containing Beta 2-Glycoprotein I-Derived Peptides for the Prevention and/or Treatment of Vascular Disease” (Vascular Biogenics Ltd., priority 2005, published 2009)", "assay_type_in_all_cases": "in vivo", "key": {"[1]": {"system": "LDL-RD mice", "experiment": "Aortic sinus lesion area after oral administration, Western diet", "conditions": "for Aortic sinus lesion (μm^2): End, mean ± S.E", "procedure": "Oral Tolerance: For comparison, oral tolerance to plaque-associated molecules was induced by feeding […] of antigen every other day (for a detailed account of induction of oral tolerance, see U.S. patent application Ser. No. 09/806,400 to Shoenfeld et al filed Sep. 30, 1999), in a similar regimen to the nasal tolerance. LDL-RD mice were fed by a nasogastric tube, five doses (every other day) of human or bovine β2GPI in PBS in two different concentrations (500 and 50 μg/dose).\nOral tolerance to β2GPI-derived peptides, alone or in combination was induced by feeding 100 μg of the peptides (prepared in PBS, 0.2 ml), as detailed hereinabove, every other day for a total of 5 doses of 100 μg. One day following the last feeding, all mice were switched from chow-diet to an atherogenic “Western” diet and sacrificed five weeks later.\n(§1) Assessment of Atherosclerosis: Quantification of atherosclerotic fatty streak lesions was done by calculating the lesion size in the aortic sinus as previously described (16) and by calculating the lesion size in the aorta. Briefly, after perfusion with saline Tris EDTA, the heart and the aorta were removed from the animals and the peripheral fat cleaned carefully. The upper section of the heart was embedded in OCT medium (10.24% w/w polyvinyl alcohol; 4.26% w/w polyethylene glycol; 85.50% w/w nonreactive ingredients) and frozen. Every other section (10 μm thick) throughout the aortic sinus (400 μm) was taken for analysis. The distal portion of the aortic sinus was recognized by the three valve cusps that are the junctions of the aorta to the heart. […] Lesion areas per section were scored on a grid (17) by an observer counting unidentified, numbered specimens. The aorta was dissected from the heart and surrounding adventitious tissue was removed. Fixation of the aorta and Sudan staining of the vessels were performed as previously described (21).\nLDL-receptor deficient (LDL-RD; LDLR −/−) mice created on a C57BL/6 background develop accelerated atherosclerosis when fed a high cholesterol diet, but not when fed a regular chow diet. In order to determine whether mucosal administration of the plaque antigen β2GPI could suppress atherogenic processes, LDL-RD mice were fed low, oral tolerance inducing doses of human and bovine β2GPI, and the assessed for alterations in response to diet."}, "[2]": {"system": "ApoE-KO mice", "experiment": "Aortic sinus lesion area after oral administration in ApoE-KO mice", "source_text": "as §1\nIn order to determine the protective effect of mucosal administration of β2GPI on development of atherosclerosis, adult ApoE-KO mice were treated with oral administration of human β2GPI. 20 week-old male ApoE-KO mice, having advanced atherosclerotic lesions were treated monthly with human β2GPI (50 μg/dose) or PBS (0.2 ml) in 5 oral administrations (by gavage, as described hereinabove) given every other day, for four months. Lesion area calculated from cryosections of the aortic sinus were compared between control untreated 20 week old mice, and mice following 16 weeks oral administration of β2GPI or PBS.\n10-11 week-old male ApoE-KO mice, having early atherosclerotic lesions, were treated with 5 oral administrations (by gavage, as described hereinabove) given every other day of human β2GPI peptide S-4 (SEQ ID NO: 14) or human β2GPI (50 μg/dose) or PBS (0.2 ml). Lesion areas calculated from cryosections of the aortic sinus were compared between control untreated, human β2GPI treated and S-4 human β2GPI-derived peptide treated mice at 8 weeks following the last oral administration of the antigens, or of PBS."}, "[3]": {"system": "ApoE-KO mice", "experiment": "Aortic sinus lesion area after nasal administration in ApoE-KO mice", "procedure": "Nasal Tolerance: Nasal tolerance was induced by intranasal administration of oxidized LDL, β2GPI, β2GPI-derived peptides or HSP65, in a total volume of 10 μl PBS. Intranasal administration was performed on mildly sedated mice (12-16 weeks old), each mouse receiving […] of antigen per dose, in the indicated concentrations, every other day. Atherogenesis was induced by 5 weeks of a Western diet initiated on the day following the last intranasal administration, or assessed (in Apo E KO mice) after 8 weeks on a chow diet. Controls received equal amounts of BSA and/or PBS, as indicated, in an identical regimen. Plasma was obtained for assessment of cholesterol and triglyceride levels from all mice, and the mice were sacrificed for evaluation of atherosclerosis, as described hereinbelow, after 5 weeks Western diet, or (in Apo E KO mice) after 8 weeks on a chow diet.\nAssessment of Atherosclerosis: Quantification of atherosclerotic fatty streak lesions was done by calculating the lesion size in the aortic sinus as previously described (16) and by calculating the lesion size in the aorta. Briefly, after perfusion with saline Tris EDTA, the heart and the aorta were removed from the animals and the peripheral fat cleaned carefully. […] Lesion areas per section were scored on a grid (17) by an observer counting unidentified, numbered specimens. […]"}}, "note": "Several values for one entry are separate records, joined by “and”; a condition that tells them apart may be missing. Equal values may be shown once.", "data": [{"molecule": "Human β2 GPI: human beta2-glycoprotein I (SEQ ID NO: 10) purified from serum (protein) MISPVLILFSSFLCHVAIAGRTCPKPDDLPFSTVVPLKTFYEPGEEITYSCKPGYVSRGGMRKFICPLTGLWPINTLKCTPRVCPFAGILENGAVRYTTFEYPNTISFSCNTGFYLNGADSAKCTEEGKWSPELPVCAPIICPPPSIPTFATLRVYKPSAGNNSLYRDTAVFECLPQHAMFGNDTITCTTHGNWTKLPECREVKCPFPSRPDNGFVNYPAKPTLYYKDKATFGCHDGYSLDGPEEIECTKLGNWSAMPSCKASCKLPVKKATVVYQGERVKIQEKFKNGMLHGDKVSFFCKNKEKKCSYTEDAQCIDGTIEVPKCFKEHSSLAFWKTDASDVKPC", "values": [{"measurement": "Aortic sinus lesion (μm^2)", "setting": "[1]; oral 50 μg", "result": "26563 ± 2370", "unit": "μm^2"}, {"measurement": "Aortic sinus lesion (μm^2)", "setting": "[1]; oral 100 μg", "result": "30250 ± 4464", "unit": "μm^2"}, {"measurement": "Aortic sinus lesion (μm^2)", "setting": "[1]; oral 500 μg", "result": "27031 ± 3387", "unit": "μm^2"}, {"measurement": "reduction of atherosclerosis as compared with BSA-fed controls", "setting": "[1]; oral 50 μg/dose", "result": 45, "unit": "%"}, {"measurement": "reduction of atherosclerosis (aortic sinus lesion size) as compared with BSA- and PBS-fed controls", "setting": "[1]; oral 100 μg/dose, 5 doses, Western diet 5 weeks", "result": 44, "unit": "%"}, {"measurement": "reduction of atherosclerosis as compared with BSA-fed controls", "setting": "[1]; oral 500 μg/dose", "result": 44, "unit": "%"}, {"measurement": "Aortic sinus lesion (μm^2)", "setting": "[2]; End, oral 50 μg, 5 doses, ApoE-KO mice", "result": "90833 ± 9502", "unit": "μm^2"}, {"measurement": "reduction of progression of atherosclerotic lesions compared to PBS controls", "setting": "[2]; oral 50 μg, 5 doses, then 8 weeks of chow diet, 10-11 week-old ApoE-KO mice", "result": 47, "unit": "%"}, {"measurement": "inhibition of progression of atherosclerotic lesions as compared to PBS control", "setting": "[2]; oral 50 μg/dose, 5 administrations monthly for four months, 20 week-old ApoE-KO mice, 16 weeks", "result": "> 30% and 35%"}, {"measurement": "Aortic sinus lesion (μm^2)", "setting": "[3]; End, nasal 10 μg/mouse, mean ± S.E", "result": "117449 ± 7524", "unit": "μm^2"}, {"measurement": "reduction of progression of atherosclerotic lesions compared to PBS controls", "setting": "[3]; nasal 10 μg, 3 doses, then 8 weeks of chow diet", "result": 19, "unit": "%"}]}]}
